Experimental data reported in patent US20240352093A1, “PEPTIDE AND GELATIN HYBRID HYDROGELS AS ECONOMICAL ALTERNATIVES TO COMMON BASEMENT-MEMBRANE MATRICES” (AGENCY FOR SCIENCE, TECHNOLOGY AND RESEARCH, priority 2021, published 2024).
No end group written: not given here.

Columns and labels:
[1] = Transparency and clarity of hydrogels (tube images, light microscopy); format: physicochemical; conditions: SW480 spheroids Day 7 (FIG. 13)
Procedure: IVK8 was dissolved in 300 mM sucrose sterile solution at a peptide concentration of 1.0% wt/vol. and stored at 4° C. until required. The peptide remains a solution at cold conditions (4° C. or ice bath). Gelatin was dissolved using sterile DI water at 60 mg/ml at 60° C. To form the hydrogel, gelatin was removed from the warm water bath and the cold IVK8 solution was added to the gelatin. DMEM was then added to this mixture at a volume ratio of 3:7 DMEM: mixture and was left to stand at 37° C. for 10 min for gelation to occur. The procedure for preparing IVK8 hydrogels was the same. Once formed, the gels remain stable at temperatures between 25 to 37° C. Similarly, the other peptide/gelatin hydrogels may be prepared by the same method described for IVK8, further detail and modifications of the general procedure may be found in WO2021015675. For example. IIK8, ILK8, IVK12, and IIK12 may be used instead of IVK8 to prepare the peptide/gelatin hydrogel. It may be observed from FIGS. 10A to 10 that shorter peptides result in clearer hydrogels. […] The high opacity of IVK12_0.25%/Gelatin_3% (FIG. 11D) and IIK12_0.25%/Gelatin_3% (FIG. 11E) may make them less suitable for 3D culture of tumor spheroid due to difficulties in observing the spheroids.

SW480 tumor spheroids = test: Cell viability (MTS) of SW480 tumor spheroids cultured in hydrogels; format: cell-based, human; conditions: Day 7; hybrid hydrogels peptide_0.25%/G_3% (FIG. 12B)
Procedure: Human hepatocellular carcinoma HepG2 and human colorectal adenocarcinoma SW480 were cultivated in Dulbecco's Modified Eagle Medium (DMEM), supplemented by 10% Fetal Bovine Serum and 1% Penicillin, incubated at 37° C., 5% CO2. To prepare the tumor spheroids, 200 μL of cell suspension (3500 cells/mL) were seeded per well onto 96-well ultralow adhesion round bottom plates (Corning, U.S.A.). After which, the plate was centrifuged for 5 min at 1500 rpm) and incubated at 37° C. for 2-3 days for the cells to assemble into tumor spheroids. The IVK8/gelatin hydrogels were then prepared according to the steps in Section 2.2 and was used right after mixing the peptide and gelatin together. A positive control group was set up using the basement membrane product, Geltrex™ (Thermofisher, U.S.A.). Geltrex was kept in an ice bath during the experiment. The hydrogels were transferred to the tumor spheroids by first removing 150 μL of the spent medium. Subsequently, 70 μL of the hydrogels were added per well and the samples and incubated at 37° C. for 30 min before 100 μL were added to each well. The spent medium was replaced once every 2 to 3 days by removing 80 μL medium and adding 80 μL fresh medium. The growth of the tumor spheroids was monitored over time using DMil inverted light microscope (Leica, U.S.A.).
The viability of tumor spheroids cultured in the hydrogels for 7 days was determined by the CellTiter 96 AQueous One Solution Cell Proliferation Assay (MTS) (Promega, U.S.A.). Briefly, 80 μL of the spent medium was removed from each well containing the tumor spheroids. Next, 80 μL containing DMEM: MTS at 1:1 volume ratio was then added back into the wells. The plate was then incubated at 37° C. for 4.5 h. After which, the medium was pipetted several times to break up any aggregates that may be present and 100 μL of this solution was transferred to a fresh 96 well plate. The absorbance of the samples was measured at wavelength 490 nm using a microplate reader (Tecan, Switzerland).

[2] = Water retention of IVK8 peptide hydrogel; format: physicochemical; conditions: peptide hydrogel in water at high concentrations
[3] = Gelation time by vial tilting method; format: physicochemical; conditions: 2% wt/vol.
Procedure: Vial tilting method was applied to determine the gelation time of the hydrogels. […] Rheology experiments were performed on a control-strain rheometer (ARES G2, TA instruments), as described previously. Briefly, a parallel plate measuring geometry (8 mm diameter, gap 1 mm) with oscillatory strain of 1% and the dynamic storage modulus (G′) and loss modulus (G″) were examined as a function of frequency from 1 to 100 rad/s. In addition, a flow sweep to study the viscosity changes as a function of shear rate of hydrogel samples.

## IRIKIEIEIRIK (IRIKIEIEIRIK-NH2) [IIK12, self-assembling peptide]
[1]
  opacity of peptide/gelatin hybrid hydrogel in spheroid culture: more opaque
SW480 tumor spheroids
  cell viability of SW480 tumor spheroids compared to Geltrex: significantly lower viability

## IEVEIRVK (IEVEIRVK-NH2) [IVK8, self-assembling peptide]
[1]
  opacity of peptide/gelatin hybrid hydrogel in spheroid culture: least opaque
SW480 tumor spheroids
  cell viability of SW480 tumor spheroids compared to Geltrex: no significant difference
[2]
  water retention: ~99%
[3]; 37° C.
  gelation time: less than 30 min
[3]; room temperature (23-24° C.)
  gelation time: ≤ 60 min

## IELEIRLK (IELEIRLK-NH2) [ILK8, self-assembling peptide]
[1]
  opacity of peptide/gelatin hybrid hydrogel in spheroid culture: more opaque
SW480 tumor spheroids
  cell viability of SW480 tumor spheroids compared to Geltrex: no significant difference

## IEIEIRIK (IEIEIRIK-NH2) [IIK8, self-assembling peptide]
[1]
  opacity of peptide/gelatin hybrid hydrogel in spheroid culture: least opaque
SW480 tumor spheroids
  cell viability of SW480 tumor spheroids compared to Geltrex: no significant difference

## IRVKIEVEIRVK (IRVKIEVEIRVK-NH2) [IVK12, self-assembling peptide]
[1]
  opacity of peptide/gelatin hybrid hydrogel in spheroid culture: most opaque
SW480 tumor spheroids
  cell viability of SW480 tumor spheroids compared to Geltrex: significantly lower viability
